Data as given in paper PMC6015732.

Key:
Assay in all cases: SPR
[1] = target: RG801 (Fc domain of glycosylated clone 801 constructed with the Fab arms of Rituxan) (human)
[2] = target: RG802 (Rituxan clone 802, glycosylated) (human)
[3] = target: IgG1 (wild-type glycosylated IgG1) (human) [IgG part: P01857]
[4] = target: RA801 (Fc domain of aglycosylated clone 801 constructed with the Fab arms of Rituxan) (human)

| Kd [1] [nM] | Kd [2] [nM] | Kd [3] [nM] | Kd [4] [nM] | Substance |
| --- | --- | --- | --- | --- |
| 648 | – | – | – | human FcγRI (monomeric, soluble) (from UniProt P12314 16-292) (receptor) |
| 283 | 289 | 623 | 959 | monomeric human FcRn–β2-microglobulin (from UniProt P55899 24-365; P61769 21-119) (complex) |
